# Measured values published in the supplement of paper PMC10567573.
# B1: KLHDC10 (parent)
# chain: PSLLELAWEKLLAAFPNLANLSRT
# Variants of: B1
# Assay: protein stability index of a GFP-peptide fusion (GPS, HEK-293T) (PSI 1-6); higher = more stable
# Settings: c terminus: a fixed tail appended
# 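Also: lentivirally expressed fusions sorted by FACS into six bins by GFP to DsRed ratio, PSI derived from sequencing read proportions per bin multiplied by bin number.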
row,Variant,protein stability index
1,WSLLELAWEKLLAAFPNLANLSRT,1.8
2,KSLLELAWEKLLAAFPNLANLSRT,2.79
3,MSLLELAWEKLLAAFPNLANLSRT,1.94
4,NSLLELAWEKLLAAFPNLANLSRT,2.17
5,LSLLELAWEKLLAAFPNLANLSRT,2.23
6,TSLLELAWEKLLAAFPNLANLSRT,1.85
7,ESLLELAWEKLLAAFPNLANLSRT,3.28
8,DSLLELAWEKLLAAFPNLANLSRT,2.06
9,HSLLELAWEKLLAAFPNLANLSRT,2.21
10,YSLLELAWEKLLAAFPNLANLSRT,1.67
11,ASLLELAWEKLLAAFPNLANLSRT,2.42
12,RSLLELAWEKLLAAFPNLANLSRT,2.12
13,CSLLELAWEKLLAAFPNLANLSRT,1.86
14,SSLLELAWEKLLAAFPNLANLSRT,1.85
15,FSLLELAWEKLLAAFPNLANLSRT,2.52
16,VSLLELAWEKLLAAFPNLANLSRT,2
17,ISLLELAWEKLLAAFPNLANLSRT,1.92
18,PSLLERAWEKLLAAFPNLANLSRT,1.72
19,PSLLEIAWEKLLAAFPNLANLSRT,2.06
20,PSLLEPAWEKLLAAFPNLANLSRT,1.86
21,PSLLEAAWEKLLAAFPNLANLSRT,1.94
22,PSLLEDAWEKLLAAFPNLANLSRT,2.2
23,PSLLECAWEKLLAAFPNLANLSRT,1.92
24,PSLLETAWEKLLAAFPNLANLSRT,2.23

row,Variant,protein stability index
1,PSLLESAWEKLLAAFPNLANLSRT,2.28
2,PSLLEHAWEKLLAAFPNLANLSRT,1.59
3,PSLLEQAWEKLLAAFPNLANLSRT,2
4,PSLLEFAWEKLLAAFPNLANLSRT,2.01
5,PSLLEKAWEKLLAAFPNLANLSRT,3.43
6,PSLLEYAWEKLLAAFPNLANLSRT,1.95
7,PSLLEVAWEKLLAAFPNLANLSRT,2.33
8,PSLLENAWEKLLAAFPNLANLSRT,2.09
9,PSLLEMAWEKLLAAFPNLANLSRT,2.47
10,PSLLEGAWEKLLAAFPNLANLSRT,1.64
11,PSLLEEAWEKLLAAFPNLANLSRT,1.81
12,PSLLEWAWEKLLAAFPNLANLSRT,3.58
13,PVLLELAWEKLLAAFPNLANLSRT,1.86
14,PNLLELAWEKLLAAFPNLANLSRT,1.77
15,PTLLELAWEKLLAAFPNLANLSRT,1.96
16,PQLLELAWEKLLAAFPNLANLSRT,1.79
17,PYLLELAWEKLLAAFPNLANLSRT,2.36
18,PGLLELAWEKLLAAFPNLANLSRT,1.72
19,PCLLELAWEKLLAAFPNLANLSRT,1.34
20,PFLLELAWEKLLAAFPNLANLSRT,2.41
21,PELLELAWEKLLAAFPNLANLSRT,2.03
22,PALLELAWEKLLAAFPNLANLSRT,2.09
23,PILLELAWEKLLAAFPNLANLSRT,1.17
24,PPLLELAWEKLLAAFPNLANLSRT,2.25

row,Variant,protein stability index
1,PHLLELAWEKLLAAFPNLANLSRT,1.78
2,PKLLELAWEKLLAAFPNLANLSRT,2.17
3,PLLLELAWEKLLAAFPNLANLSRT,2.19
4,PMLLELAWEKLLAAFPNLANLSRT,1.61
5,PWLLELAWEKLLAAFPNLANLSRT,1.94
6,PDLLELAWEKLLAAFPNLANLSRT,2.67
7,PRLLELAWEKLLAAFPNLANLSRT,1.82
8,PSLLELMWEKLLAAFPNLANLSRT,2.33
9,PSLLELNWEKLLAAFPNLANLSRT,2.28
10,PSLLELIWEKLLAAFPNLANLSRT,1.97
11,PSLLELVWEKLLAAFPNLANLSRT,2.22
12,PSLLELWWEKLLAAFPNLANLSRT,1.84
13,PSLLELYWEKLLAAFPNLANLSRT,2.08
14,PSLLELGWEKLLAAFPNLANLSRT,1.96
15,PSLLELPWEKLLAAFPNLANLSRT,1.77
16,PSLLELKWEKLLAAFPNLANLSRT,2.73
17,PSLLELTWEKLLAAFPNLANLSRT,1.28
18,PSLLELDWEKLLAAFPNLANLSRT,2.14
19,PSLLELHWEKLLAAFPNLANLSRT,1.33
20,PSLLELEWEKLLAAFPNLANLSRT,2.74
21,PSLLELQWEKLLAAFPNLANLSRT,2.29
22,PSLLELSWEKLLAAFPNLANLSRT,2.58
23,PSLLELRWEKLLAAFPNLANLSRT,2.35
24,PSLLELCWEKLLAAFPNLANLSRT,2.23

row,Variant,protein stability index
1,PSLLELLWEKLLAAFPNLANLSRT,2.29
2,PSLLELFWEKLLAAFPNLANLSRT,1.86
3,PSLLELAWAKLLAAFPNLANLSRT,1.84
4,PSGLELAWEKLLAAFPNLANLSRT,1.56
5,PSMLELAWEKLLAAFPNLANLSRT,1.65
6,PSTLELAWEKLLAAFPNLANLSRT,1.97
7,PSALELAWEKLLAAFPNLANLSRT,2.24
8,PSPLELAWEKLLAAFPNLANLSRT,1.72
9,PSVLELAWEKLLAAFPNLANLSRT,1.73
10,PSELELAWEKLLAAFPNLANLSRT,1.83
11,PSNLELAWEKLLAAFPNLANLSRT,1.63
12,PSRLELAWEKLLAAFPNLANLSRT,2.06
13,PSCLELAWEKLLAAFPNLANLSRT,1.85
14,PSILELAWEKLLAAFPNLANLSRT,1.56
15,PSDLELAWEKLLAAFPNLANLSRT,2.16
16,PSKLELAWEKLLAAFPNLANLSRT,2.33
17,PSQLELAWEKLLAAFPNLANLSRT,2.29
18,PSHLELAWEKLLAAFPNLANLSRT,1.75
19,PSFLELAWEKLLAAFPNLANLSRT,2.22
20,PSSLELAWEKLLAAFPNLANLSRT,1.7
21,PSWLELAWEKLLAAFPNLANLSRT,1.9
22,PSYLELAWEKLLAAFPNLANLSRT,1.86
